Experimental data taken from patent publication US20180155698.

Columns and labels:
[1] = target: TEE polymerase K276C,Q307E,Q451C (Bacillus stearothermophilus) (UniProt Q04957); assay: BLI; conditions: first round 1.10 vs 0.4; second round after incorporation 4.83; very low binary signal; 900 nM, 100 mM KCl, 320 mM K-glutamate, 2 mM SrCl2; scale: ratio correct to highest incorrect signal
[2] = target: DSA polymerase K276C,Q451C (Bacillus stearothermophilus) (UniProt Q04957); assay: BLI; conditions: first round 1.75 vs 0.9; second round after incorporation 1.60; 300 nM, 100 mM KCl, 320 mM K-glutamate, 2 mM SrCl2; lower binary and ternary signal than CBT in …; scale: ratio correct to highest incorrect signal

primed template, next correct nucleotides AT (Examples 3 and 5)
binding signal [1]: 2.75
binding signal [2]: 1.95
